From patent US8143216B2, “Modified human growth hormone” (Ambrx, Inc., priority 2004, dated 2012)
Values belong to the molecule of their own block, whether it stands above or below them.

Columns and labels:
[1] = target: T1, human growth hormone receptor on IM-9 cells (Homo sapiens, UniProt P10912); experiment: IM-9 pSTAT5 bioassay (STAT5 phosphorylation in IM-9 cells); assay type: cell-based; conditions: IM-9; WHO hGH is expressed as unity
T1 construct: host or cells: human IM-9 lymphocyte cell line
T1 sequence (P10912 19-638): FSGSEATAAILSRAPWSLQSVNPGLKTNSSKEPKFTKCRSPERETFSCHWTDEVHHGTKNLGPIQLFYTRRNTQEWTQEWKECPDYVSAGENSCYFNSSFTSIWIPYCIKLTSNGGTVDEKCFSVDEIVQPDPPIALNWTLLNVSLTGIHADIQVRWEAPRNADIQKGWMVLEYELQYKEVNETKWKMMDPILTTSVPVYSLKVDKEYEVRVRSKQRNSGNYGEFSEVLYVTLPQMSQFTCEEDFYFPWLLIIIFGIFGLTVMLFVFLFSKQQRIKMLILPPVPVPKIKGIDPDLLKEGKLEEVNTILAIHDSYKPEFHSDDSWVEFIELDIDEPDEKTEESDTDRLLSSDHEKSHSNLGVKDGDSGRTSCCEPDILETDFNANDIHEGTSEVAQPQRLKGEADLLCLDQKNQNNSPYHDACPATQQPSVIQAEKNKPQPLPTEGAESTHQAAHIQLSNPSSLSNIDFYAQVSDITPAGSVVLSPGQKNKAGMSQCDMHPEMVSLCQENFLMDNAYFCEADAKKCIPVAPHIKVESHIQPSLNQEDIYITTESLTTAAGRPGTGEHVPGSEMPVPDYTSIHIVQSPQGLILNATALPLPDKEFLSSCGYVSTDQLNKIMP
From the text: (§1) To further assess the biological activity of modified hGH polypeptides, an assay measuring a downstream marker of hGH's interaction with its receptor was used. The interaction of hGH with its endogenously produced receptor leads to the tyrosine phosphorylation of a signal transducer and activator of transcription family member, STAT5, in the human IM-9 lymphocyte cell line. Two forms of STAT5, STAT5A and STAT5B were identified from an IM-9 cDNA library. See, e.g., Silva et al., Mol. Endocrinol. (1996) 10(5):508-518.
IM-9 cells were stimulated with hGH polypeptides of the present invention. The human IM-9 lymphocytes were purchased from ATCC (Manassas, Va.) and grown in RPMI 1640 supplemented with sodium pyruvate, penicillin, streptomycin (Invitrogen, Carlsbad, San Diego) and 10% heat inactivated fetal calf serum (Hyclone, Logan, Utah). The IM-9 cells were starved overnight in assay media (phenol-red free RPMI, 10 mM Hepes, 1% heat inactivated charcoal/dextran treated FBS, sodium pyruvate, penicillin and streptomycin) before stimulation with a 12-point dose range of hGH polypeptides for 10 min at 37° C. Stimulated cells were fixed with 1% formaldehyde before permeabilization with 90% ice-cold methanol for 1 hour on ice. The level of STAT5 phosphorylation was detected by intra-cellular staining with a primary phospho-STAT5 antibody (Cell Signaling Technology, Beverly, Mass.) at room temperature for 30 min followed by a PE-conjugated secondary antibody. Sample acquisition was performed on the FACS Array with acquired data analyzed on the Flowjo software (Tree Star Inc., Ashland, Oreg.). EC50 values were derived from dose response curves plotted with mean fluorescent intensity (MFI) against protein concentration utilizing SigmaPlot.
The interaction of hGH with its receptor leads to the tyrosine phosphorylation of a signal transducer and activator of transcription family member, STAT5, in the human IM-9 lymphocyte cell line.

[2] = test system: rat GHR (L43R) expressing BAF3 cell line, 2E2-2B12-F4; experiment: Proliferation by BrdU labeling; assay type: cell-based, mouse; conditions: WHO hGH is expressed as unity
Procedure: All cell cultures were maintained at 37° C. in a humidified atmosphere of 5% CO2.

[3] = test system: hypophysectomized rats; experiment: Pharmacodynamic studies in hypophysectomized rats (Example 30); assay type: in vivo, rat; conditions: s.c., compared with the pAF92 30 kDa PEG compound, p<0.0005
Procedure: Hypophysectomized male Sprague-Dawley rats were obtained from Charles River Laboratories. Pituitaries were surgically removed at 3-4 weeks of age. Animals were allowed to acclimate for a period of three weeks, during which time bodyweight was monitored. Animals with a bodyweight gain of 0-8 g over a period of seven days before the start of the study were included and randomized to treatment groups. Rats were administered either a bolus dose or daily dose subcutaneously. Throughout the study rats were daily and sequentially weighed, anesthetized, bled, and dosed (when applicable). Blood was collected from the orbital sinus using a heparinized capillary tube and placed into an EDTA coated microfuge tube. Plasma was isolated by centrifugation and stored at −80° C. until analysis.
The peptide IGF-1 is a member of the family of somatomedins or insulin-like growth factors. IGF-1 mediates many of the growth-promoting effects of growth hormone. IGF-1 concentrations were measured using a competitive binding enzyme immunoassay kit against the provided rat/mouse IGF-1 standards (Diagnosic Systems Laboratories). Significant difference was determined by t-test using two-tailed distribution, unpaired, equal variance. […] Rats (n=5-7 per group) were given either a single dose or daily dose subcutaneously. Animals were sequentially weighed, anesthetized, bled, and dosed (when applicable) daily. […]

[4] = target: T2, rat GHR ECD (L43R) (Rattus norvegicus, UniProt P16310, L61R); experiment: Biacore analysis of binding of GH to GHR; conditions: rat GHR ECD (L43R) immobilized on a CM5 chip, bivalent analyte model
T2 construct: (GHR ECD, amino acids S29-T238) was cloned into pET20b vector; made in house
T2 sequence (P16310 47-256 L61R): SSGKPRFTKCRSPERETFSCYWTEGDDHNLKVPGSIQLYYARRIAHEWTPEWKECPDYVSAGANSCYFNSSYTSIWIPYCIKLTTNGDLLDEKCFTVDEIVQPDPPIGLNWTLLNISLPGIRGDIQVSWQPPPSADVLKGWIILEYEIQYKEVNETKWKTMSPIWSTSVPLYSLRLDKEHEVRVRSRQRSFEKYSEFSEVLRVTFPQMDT
Procedure: Cloning and purification of rat GH receptor The extracellular domain of rat GH receptor (GHR ECD, amino acids S29-T238) was cloned into pET20b vector (Novagen) between Nde I and Hind III sites in frame with C-terminal 6H is tag. A mutation of L43 to R was introduced to further approximate the human GH receptor binding site (Souza et al., Proc Natl Acad Sci USA. (1995) 92(4): 959-63). Recombinant protein was produced in BL21 (DE3) E. coli cells (Novagen) by induction with 0.4 mM IPTG at 30° C. for 4-5 hours. After lysing the cells, the pellet was washed four times by resuspending in a dounce with 30 mL of 50 mM Tris, pH 7.6, 100 mM NaCl, 1 mM EDTA, 1% Triton X-100, and twice with the same buffer without Triton X-100. […] Refolding was accomplished by means of passing an aliquot of the inclusion body solution through a S100 (Sigma) gel filtration column, equilibrated with 50 mM Tris, pH 7.8, 1 M L-arginine, 3.7 mM cystamine, 6.5 mM cysteamine. Fractions containing soluble protein were combined and dialyzed against 50 mM Tris, pH 7.6, 200 mM NaCl, 10% glycerol. The sample was briefly centrifuged to remove any precipitate and incubated with an aliquot of Talon resin (Clontech), according to manufacturer's instructions. After washing the resin with 20 volumes of dialysis buffer supplemented with 5 mM imidazole, protein was eluted with 120 mM imidazole in dialysis buffer. Finally, the sample was dialyzed overnight against 50 mM Tris, pH 7.6, 30 mM NaCl, 1 mM EDTA, 10% glycerol, centrifuged briefly to remove any precipitate, adjusted to 20% glycerol final concentration, aliquoted and stored at −80 C. Concentration of the protein was measured by OD(280) using calculated extinction coefficient of ε=65,700 M^−1*cm^−1.
Approximately 600-800 RUs of soluble GHR ECD was immobilized on a Biacore™ CM5 chip, using a standard amine-coupling procedure, as recommended by the manufacturer. […] See, e.g., Cunningham et al. J Mol. Biol. (1993) 234(3): 554-63 and Wells J A. Proc Natl Acad Sci USA (1996) 93(1): 1-6).
Various concentrations of wild type or mutant GH (0.1-300 nM) in HBS-EP buffer (Biacore™, Pharmacia) were injected over the GHR surface at a flow rate of 40 μl/min for 4-5 minutes, and dissociation was monitored for 15 minutes post-injection. The surface was regenerated by a 15 second pulse of 4.5M MgCl2. […] Reference cell with no receptor immobilized was used to subtract any buffer bulk effects and non-specific binding.
Kinetic binding data obtained from GH titration experiments was processed with BiaEvaluation 4.1 software (BIACORE™). […] Equilibrium dissociation constants (Kd) were calculated as ratios of individual rate constants (koff/kon).

[5] = Pharmacokinetic studies, single s.c. dose in normal male Sprague-Dawley rats; assay type: in vivo, rat; conditions: single-dose 1 mg/kg bolus s.c., normal male Sprague-Dawley rats
Procedure: Pharmacokinetic properties of PEG-modified growth hormone compounds were compared to each other and to nonPEGylated growth hormone in male Sprague-Dawley rats (261-425 g) obtained from Charles River Laboratories. Catheters were surgically installed into the carotid artery for blood collection. Following successful catheter installation, animals were assigned to treatment groups (three to six per group) prior to dosing. Animals were dosed subcutaneously with 1 mg/kg of compound in a dose volume of 0.41-0.55 ml/kg. Blood samples were collected at various time points via the indwelling catheter and into EDTA-coated microfuge tubes. Plasma was collected after centrifugation, and stored at −80° C. until analysis. Compound concentrations were measured using antibody sandwich growth hormone ELISA kits from either BioSource International (Camarillo, Calif.) or Diagnostic Systems Laboratories (Webster, Tex.). Concentrations were calculated using standards corresponding to the analog that was dosed. Pharmacokinetic parameters were estimated using the modeling program WinNonlin (Pharsight, version 4.1). Noncompartmental analysis with linear-up/log-down trapezoidal integration was used, and concentration data was uniformly weighted.
Rats (n=3-4 per group) were given a single bolus dose of 1 mg/kg hGH wild-type protein (WHO hGH), His-tagged hGH polypeptide (his-hGH), or His-tagged hGH polypeptide comprising non-natural amino acid p-acetyl-phenylalanine at position 92 covalently linked to 30 kDa PEG (30 KPEG-pAF92(his)hGH). Plasma samples were taken over the indicated time intervals and assayed for injected compound as described.
Rats (n=3-6 per group) were given a single bolus dose of 1 mg/kg protein. hGH polypeptides comprising non-natural amino acid p-acetyl-phenylalanine covalently linked to 30 kDa PEG at each of six different positions were compared to WHO hGH and (his)-hGH. Plasma samples were taken over the indicated time intervals and assayed for injected compound as described. Concentration vs time curves were evaluated by noncompartmental analysis (Pharsight, version 4.1). Values shown are averages (+/− standard deviation). Cmax: maximum concentration; terminal t1/2: terminal half-life; AUC0->inf: area under the concentration-time curve extrapolated to infinity; MRT: mean residence time; Cl/f: apparent total, plasma clearance; Vz/f: apparent volume of distribution during terminal phase.

[6] = target: T1, human growth hormone receptor on IM-9 cells; experiment: Inhibition of WHO hGH induced phosphorylation of STAT5 in IM-9 cells; assay type: cell-based
From the text: as §1

Molecule: F92pAF/G120R: hGH with p-acetyl-phenylalanine substituted for F92 and a G120R substitution
EC50 [1]: > 200 µM
EC50 [2]: > 200 µM

B1: rat GHR (L43R) extra cellular domain: extracellular domain of rat GH receptor (amino acids S29-T238) with L43 to R mutation (protein)
chain: T2 sequence (P16310 47-256 L61R)
modifications: left off: small tags and cut ends
notes: extracellular domain of rat GH receptor (amino acids S29-T238) with L43 to R mutation
competition against hGH stimulated pSTAT5 phosphorylation / antagonist potency [6]: compete effectively against hGH stimulated pSTAT5 phoshorylation

Second part, led by results:

EC50 [1]: > 200 µM
EC50 [2]: > 200 µM
Molecule: F92pAF/G120R-30KPEG: hGH with G120R and p-acetyl-phenylalanine at position 92 linked to 30 kDa PEG

kon [4]: 90000 M⁻¹ s⁻¹
Molecule: Y35pAF-30KD PEG: hGH polypeptide comprising p-acetyl-phenylalanine at position 35 covalently linked to 30 kDa PEG
bodyweight gain at day 9 [3]: greater weight gain was observed
AUC0−>inf [5]: 39,918 ng × hr/ml
Cl/f [5]: 0.583 mL/min/kg
Cmax [5]: 1,885 ng/ml
MRT [5]: 19.16 h
Terminal t1/2 [5]: 4.85 h
